According to patent US20260285970 (published 2026):

Legend:
Experiment in all cases: ELISA
IL-2 = IL-2 (UniProt P60568)
IL-17 = biological target: IL-17
IL-4 = biological target: T1, IL-4 (UniProt P05112)
T1 chain: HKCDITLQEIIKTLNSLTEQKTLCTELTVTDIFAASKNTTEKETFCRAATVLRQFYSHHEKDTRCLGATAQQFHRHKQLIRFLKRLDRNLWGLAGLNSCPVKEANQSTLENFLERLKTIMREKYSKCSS

BSA = BSA (bovine, UniProt P02769)

Measured: binding result

IL-17, sequence (chain, as listed by the source): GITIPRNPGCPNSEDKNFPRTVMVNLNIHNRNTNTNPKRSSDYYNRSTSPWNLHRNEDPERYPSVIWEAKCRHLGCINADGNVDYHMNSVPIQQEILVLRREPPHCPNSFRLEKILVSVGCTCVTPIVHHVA
IL-2, sequence (P60568 21-153): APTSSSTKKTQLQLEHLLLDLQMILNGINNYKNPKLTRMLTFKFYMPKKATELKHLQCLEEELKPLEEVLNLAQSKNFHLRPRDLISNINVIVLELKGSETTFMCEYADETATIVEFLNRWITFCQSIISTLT
BSA, sequence (P02769 25-607): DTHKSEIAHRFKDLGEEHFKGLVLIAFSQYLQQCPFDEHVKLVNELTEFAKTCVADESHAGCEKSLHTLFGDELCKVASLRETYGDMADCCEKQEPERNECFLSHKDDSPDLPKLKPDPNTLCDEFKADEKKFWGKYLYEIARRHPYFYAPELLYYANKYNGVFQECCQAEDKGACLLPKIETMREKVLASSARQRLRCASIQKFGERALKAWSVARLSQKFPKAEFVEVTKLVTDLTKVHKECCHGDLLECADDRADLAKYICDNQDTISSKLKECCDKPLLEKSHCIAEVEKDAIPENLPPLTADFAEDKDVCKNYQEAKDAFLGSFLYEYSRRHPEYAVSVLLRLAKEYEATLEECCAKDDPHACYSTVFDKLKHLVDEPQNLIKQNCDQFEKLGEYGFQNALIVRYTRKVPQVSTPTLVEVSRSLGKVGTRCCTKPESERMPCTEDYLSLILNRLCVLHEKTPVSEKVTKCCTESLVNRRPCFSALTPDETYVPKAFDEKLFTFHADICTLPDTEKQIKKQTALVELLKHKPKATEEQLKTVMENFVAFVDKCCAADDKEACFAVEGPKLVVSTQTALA

B1: BDG33.025 (antibody, V domains shown)
VH: QMQLVESGGGVVQPGRSLRLSCAASGFTFRTYGMHWVRQAPGKGLEWVADIWYDGSNKHYADSVKGRFTITRDNSKNTLNLQMNSLRAEDTAVYYCARAPQWYLVAEPFDLWGQGTMVTVSS
VL: SYVLTQPPSVSVAPGQTARITCGGNLIGSKLVHWYQQKPGQAPVLVVYDDSDRPSLIPERFSGSNSGNTATLTISRVEAGDEADYYCQVWDSSSDGVVFGGGTKLTVL
no binding: IL-2 | IL-17

B2: BDG33.023 (antibody, V domains shown)
VH: QMQLVESGGGVVQPGRSLRLSCAASGFAFRTYGMHWVRQAPGKGLEWVAVIWYDGSNTHYADSVKGRFTITRDNSKNTLNLQMNSLRAEDTAVYYCARAPQWYLSAEAFDLWGQGTMVTVSS
VL: SYVLTQPPSVSVAPGQTARITCGGNLIGSKLVHWYQQKPGQAPVLVVYDDSDRPSRIPERFSGSNSGNTATLTISRVEAGDEADYYCQVWDHSSDHVVFGGGTKLTVL
no binding: all assays above
